From patent US9046519 come the findings set out here.

In assay [1] the target is TSHR Arg255 to Asp (human) (UniProt P16473). Put plainly: cell-based or functional assay.
In assay [2] the target is human thyrotropin receptor (TSHR), wild type, full length (human) (UniProt P16473). In words: cell-based or functional assay.

In assay [1], hMAb TSHR1 IgG (antibody) yielded a Cyclic AMP produced (fmol/cell well), hMAb TSHR1 IgG 1 ng/mL (fmol/cell well) of 940; a Cyclic AMP produced (fmol/cell well), hMAb TSHR1 IgG 10 ng/mL (fmol/cell well) of 3160; a Cyclic AMP produced (fmol/cell well), hMAb TSHR1 IgG 100 ng/mL (fmol/cell well) of 5700; a Cyclic AMP produced (fmol/cell well), hMAb TSHR1 IgG 1 µg/mL (fmol/cell well) of 5030. In assay [1], this substance gave a Mutated/Wild type (%), hMAb TSHR1 IgG 1 ng/mL of 19%; a Mutated/Wild type (%), hMAb TSHR1 IgG 10 ng/mL of 19%; a Mutated/Wild type (%), hMAb TSHR1 IgG 100 ng/mL of 37%. In addition, in assay [2], the Cyclic AMP produced (fmol/cell well), hMAb TSHR1 IgG 1 ng/mL (fmol/cell well) was determined as 4860; the Cyclic AMP produced (fmol/cell well), hMAb TSHR1 IgG 10 ng/mL (fmol/cell well) turned out to be 16200; the Cyclic AMP produced (fmol/cell well), hMAb TSHR1 IgG 100 ng/mL (fmol/cell well) was found to be 15400; the Cyclic AMP produced (fmol/cell well), hMAb TSHR1 IgG 1 µg/mL (fmol/cell well) was determined as 16300.
